Reference: patent US20230227577A1 (MYTHIC THERAPEUTICS, published 2023)

Assays:
mouse DLL3 protein = target: T1, mouse DLL3 protein (mouse, UniProt O88516 33-490, limits assumed); assay: Octet (DLL3 on AR2G tips), ELISA and FACS; values only in FIG. 3
T1 construct: also called murine DLL3
T1 sequence (looked up): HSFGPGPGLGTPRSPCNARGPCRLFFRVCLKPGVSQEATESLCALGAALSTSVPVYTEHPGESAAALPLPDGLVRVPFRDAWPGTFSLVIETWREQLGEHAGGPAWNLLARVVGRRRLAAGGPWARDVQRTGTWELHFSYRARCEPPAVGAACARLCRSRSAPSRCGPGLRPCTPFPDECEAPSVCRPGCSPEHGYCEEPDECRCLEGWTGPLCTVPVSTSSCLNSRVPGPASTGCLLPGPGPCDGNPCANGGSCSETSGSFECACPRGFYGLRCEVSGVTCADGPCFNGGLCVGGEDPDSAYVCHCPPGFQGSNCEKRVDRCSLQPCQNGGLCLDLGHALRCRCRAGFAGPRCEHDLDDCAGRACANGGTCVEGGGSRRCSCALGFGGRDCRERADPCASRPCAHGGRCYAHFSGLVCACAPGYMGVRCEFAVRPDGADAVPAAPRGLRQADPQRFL

mouse DLL3 on CHO cells = target: T2, mouse DLL3 on CHO cells (mouse, UniProt O88516 33-592); assay: flow cytometry (FACS) on CHO cells expressing mouse DLL3
T2 construct: whole, on cells; also called CHO cells expressing mouse DLL3
T2 sequence (looked up): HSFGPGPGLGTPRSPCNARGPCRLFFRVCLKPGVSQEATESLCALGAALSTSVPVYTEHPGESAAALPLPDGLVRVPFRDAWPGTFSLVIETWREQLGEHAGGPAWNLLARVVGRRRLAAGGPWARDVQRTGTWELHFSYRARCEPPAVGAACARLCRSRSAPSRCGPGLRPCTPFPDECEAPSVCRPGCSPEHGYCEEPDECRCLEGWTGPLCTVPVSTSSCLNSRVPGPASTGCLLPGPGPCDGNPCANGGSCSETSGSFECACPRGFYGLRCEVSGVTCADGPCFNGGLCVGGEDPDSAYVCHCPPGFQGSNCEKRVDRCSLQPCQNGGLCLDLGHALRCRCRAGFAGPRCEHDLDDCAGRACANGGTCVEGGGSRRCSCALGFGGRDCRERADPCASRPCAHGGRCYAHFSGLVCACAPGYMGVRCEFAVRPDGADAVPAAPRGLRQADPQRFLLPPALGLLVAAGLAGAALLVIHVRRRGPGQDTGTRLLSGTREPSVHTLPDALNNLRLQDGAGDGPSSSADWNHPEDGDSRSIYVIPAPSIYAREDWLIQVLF
Method: (§1) Additional experiments were carried out to further characterize the binding properties of the anti-DLL3 constructs. Binding properties tested include dissociation constant (KD), off-rate (koff), binding to DLL3 protein by ELISA and binding to CHO cells expressing human, cyno or mouse DLL3. To obtain off-rate (koff), human biotinylated DLL3 was immobilized on Octet SA tips, and cynomolgus or mouse DLL3 was immobilized on Octet AR2G tips. For each DLL3 protein, the binding to a dilution series of each anti-DLL3 construct was measured using Fortebio Octet Red. The dissociation constant (KD), off-rate (koff) and other kinetic parameters for each anti-DLL3 construct were calculated using a 1:1 binding model. In addition, binding of these anti-DLL3 constructs to CHO cells expressing human, cyno or mouse DLL3 protein was analyzed using flow cytometry (FACS).

DLL3 (ELISA DLL3) = target: T3, DLL3 (ELISA DLL3); assay: ELISA, ratio of the signal on DLL3 to the signal on the control
T3 construct: also called DLL3 protein in ELISA
T3 chain: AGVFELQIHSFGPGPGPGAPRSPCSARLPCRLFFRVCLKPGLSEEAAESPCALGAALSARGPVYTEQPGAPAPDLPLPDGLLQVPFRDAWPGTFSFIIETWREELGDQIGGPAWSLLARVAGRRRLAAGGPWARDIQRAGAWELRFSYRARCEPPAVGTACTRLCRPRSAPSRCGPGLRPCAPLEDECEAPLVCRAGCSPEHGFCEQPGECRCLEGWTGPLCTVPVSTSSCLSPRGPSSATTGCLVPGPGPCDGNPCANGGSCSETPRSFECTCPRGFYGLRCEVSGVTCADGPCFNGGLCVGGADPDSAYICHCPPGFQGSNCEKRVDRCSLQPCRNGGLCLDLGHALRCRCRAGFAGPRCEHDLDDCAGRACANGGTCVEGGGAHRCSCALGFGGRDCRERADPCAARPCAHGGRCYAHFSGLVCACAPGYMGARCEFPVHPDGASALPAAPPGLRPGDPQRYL

[1] = target: T4, recombinant human DLL3 protein (human, UniProt Q9NYJ7 27-492, limits assumed); assay: Fortebio Octet Red, DLL3 immobilised on tips, dilution series of the VHH, 1:1 binding model; KD error 1.39E-11; Full R2 0.9994
T4 construct: also called rhu DLL3; human biotinylated DLL3
T4 sequence (looked up): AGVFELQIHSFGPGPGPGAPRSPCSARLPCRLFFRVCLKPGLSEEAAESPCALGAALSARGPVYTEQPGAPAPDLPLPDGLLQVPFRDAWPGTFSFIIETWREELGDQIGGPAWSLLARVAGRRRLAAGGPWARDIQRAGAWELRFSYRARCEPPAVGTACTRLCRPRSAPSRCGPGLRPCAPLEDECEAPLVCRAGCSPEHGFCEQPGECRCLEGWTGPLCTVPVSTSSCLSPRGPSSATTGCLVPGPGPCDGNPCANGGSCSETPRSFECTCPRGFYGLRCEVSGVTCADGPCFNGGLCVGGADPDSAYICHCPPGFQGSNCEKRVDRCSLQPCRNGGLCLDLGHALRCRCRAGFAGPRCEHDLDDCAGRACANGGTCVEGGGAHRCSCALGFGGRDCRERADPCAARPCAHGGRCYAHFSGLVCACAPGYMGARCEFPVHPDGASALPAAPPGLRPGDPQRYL
Method: as §1

[2] = target: T4, recombinant human DLL3 protein; assay: Fortebio Octet Red, DLL3 immobilised on tips, dilution series of the VHH, 1:1 binding model; kon error 1.20E+02; Full R2 0.9994
Method: as §1

binding result (mouse DLL3 protein): binds
binding result (mouse DLL3 on CHO cells): binds
DLL3 / control (DLL3 (ELISA DLL3)): 33.3
Kd [1]: 7.89 nM
kon [2]: 80900 M⁻¹ s⁻¹
B1: 2HCE27 anti-DLL3 VHH (VHH)
VHH: QVQLQESGGGLVQAGGSLRLSCAASGRTFRSYAMGWFRQAPGKEREFIAVIIMSDGSTSYADSVKGRFTISRDNAKNTLYLQMNSLKPEDTAVYYCAARRDYFTGVYDYWGQGTQVTVSS
notes: In the binning assay it was used as a periplasmic extract; also called anti-DLL3 (2HCE27)
